The record followed here is patent US20170319722A1.

Square brackets hold non-standard residues; d marks the D form. Primed or numbered codes have the meaning given here. Ends that are not written are not given here. * marks the point of attachment. PEG3′ = PEG linker of three ethylene glycol repeat units; Biotin = O=C1N[C@H]2[C@H](CS[C@H]2CCCCC(=O)*)N1; Lys(N3) = [N-]=[N+]=NCCCC[C@H](N)C(=O)O; Pra = C#CC[C@H](N)C(=O)O Bounds are passed on as bounds.

Assay [1] addresses His-tagged CD8α human recombinant protein (MBS968456, MyBioSource) (human) (UniProt P01732). As to the kind of experiment: sandwich ELISA; biotinylated biligand on NeutrAvidin plate, His-tagged CD8α titrated. For orientation: In an ELISA, binding on a coated surface is turned into a signal by an enzyme label.
In assay [2] the target is His-tagged CD8α human recombinant protein (TP760215, Origene) (human) (UniProt P01732). Description: sandwich ELISA; biotinylated ligand on NeutrAvidin plate, His-tagged CD8α titrated, anti-His-AP detection.
Sequence of His-tagged CD8α human recombinant protein (TP760215, Origene) (human) (P01732 22-182 limits assumed): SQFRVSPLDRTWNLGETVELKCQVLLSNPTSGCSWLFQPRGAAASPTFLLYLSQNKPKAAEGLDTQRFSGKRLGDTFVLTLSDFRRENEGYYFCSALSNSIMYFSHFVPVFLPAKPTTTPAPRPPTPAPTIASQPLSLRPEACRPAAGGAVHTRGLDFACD
Assay [3] has the same target. As to the kind of experiment: sandwich ELISA; range told of the group, upper end tied to Cy(rwfnv) by the legend of FIG. 5.
In assay [4] the target is His-tagged CD8α human recombinant protein (MBS968456, MyBioSource) (human) (UniProt P01732). As to the kind of experiment: ELISA with His-tagged CD8α human recombinant protein.
Sequence of His-tagged CD8α human recombinant protein (MBS968456, MyBioSource) (human) (P01732 22-182 limits assumed): as above
Assay [5] shares this target. As to the kind of experiment: sandwich ELISA; biligand against its single macrocycles Cy(HGRGH) and Cy(wplrf).
The target is the same in assay [6]. Description: sandwich ELISA; biotinylated biligand on NeutrAvidin plate, His-tagged CD8α titrated, anti-His-AP detection.

B1: Biotin-PEG3-Cy(HGRGH)-PEG3-Cy(wplrf) (peptide)
peptide 1: {Biotin-PEG3′}-[Pra]HGRGH
peptide 2: [Pra][dW][dP][dL][dR][dF]
modifications: not fully specified (some residues, C-terminus); numbers in words are those of the source; also: joined C-terminally through a PEG3 linker to the second macrocycle, triazole to a chain's N/C-terminus
For the molecule B1, in assay [1], the fold below the affinity of the optimal linker (PEG5) biligand was determined as 10 fold.

B2: biotin-PEG3-Cy(wsvnv) (peptide)
peptide: WSVNV
modifications: all residues D-amino acids (lower case); N-terminal biotin-PEG3; triazole-cyclized (Cy) between flanking Pra and Az4
In general, EC50 refers to the concentration needed to bring the measured effect to its halfway point. Regarding B2, in assay [2], the EC50 is 9 nM.

B3: Biotin-PEG3-Cy(HGRGH)-PEG7-Cy(wplrf) (peptide)
peptide 1: {Biotin-PEG3′}-[Pra]HGRGH
peptide 2: [Pra][dW][dP][dL][dR][dF]
modifications: not fully specified (some residues, C-terminus); printed as Biotin-PEG3-Cy(HGRGH)-PEG7-Cy(wplrf); numbers in words are those of the source; also: joined C-terminally through a PEG7 linker to the second macrocycle, triazole to a chain's N/C-terminus
On to B3, for which the fold below the affinity of the optimal linker (PEG5) biligand in assay [1] is 10 fold.

B4: biotin-PEG3-Cy(rwfnv) (peptide)
peptide: RWFNV
modifications: all residues D-amino acids (lower case); N-terminal biotin-PEG3; triazole-cyclized (Cy) between flanking Pra and Az4
As for B4, the EC50 in assay [3] and in assay [2] was 62 nM each time.

B5: Cy(Ghtwp)-Lys(Biotin)-PEG1-Cy(hGrGh) (peptide)
peptide 1: [Pra]G[dH][dT][dW][dP]
peptide 2: [Pra][dH]G[dR]G[dH][Lys(N3)]
modifications: not fully specified (C-terminus); printed as Cy(Ghtwp)-Lys(Biotin)-PEG1-Cy(hGrGh); also: triazole to a chain's N/C-terminus, triazole to a chain's N/C-terminus
B5: in assay [4], the concentration for a half-maximal effect (EC50) came out at 0.058 nM.

B6: Biotin-PEG3-Cy(HGRGH)-PEG5-Cy(wplrf) (peptide)
peptide 1: {Biotin-PEG3′}-[Pra]HGRGH
peptide 2: [Pra][dW][dP][dL][dR][dF]
modifications: not fully specified (some residues, C-terminus); printed as Biotin-PEG3-Cy(HGRGH)-PEG5-Cy(wplrf); numbers in words are those of the source; also: joined C-terminally through a PEG5 linker to the second macrocycle, triazole to a chain's N/C-terminus
On to B6, for which the fold improvement in affinity relative to the individual PCC macrocyclic ligands in assay [5] was > 30 fold. Moreover, the EC50 in assay [6] is 0.2 nM.

B7: Biotin-PEG3-Cy(HGRGH)-PEG6-Cy(wplrf) (peptide)
peptide 1: {Biotin-PEG3′}-[Pra]HGRGH
peptide 2: [Pra][dW][dP][dL][dR][dF]
modifications: not fully specified (some residues, C-terminus); printed as Biotin-PEG3-Cy(HGRGH)-PEG6-Cy(wplrf); numbers in words are those of the source; also: joined C-terminally through a PEG6 linker to the second macrocycle, triazole to a chain's N/C-terminus
Turning to B7, in assay [1], the fold below the affinity of the optimal linker (PEG5) biligand was 10 fold.

B8: biotin-PEG3-Cy(wplrf) (peptide)
peptide: WPLRF
modifications: all residues D-amino acids (lower case); N-terminal biotin-PEG3; triazole-cyclized (Cy) between flanking Pra and Az4
As to B8, the EC50 in assay [2] stood at 16 nM.

B9: biotin-PEG3-Cy(ffrly) (peptide)
peptide: FFRLY
modifications: all residues D-amino acids (lower case); N-terminal biotin-PEG3; triazole-cyclized (Cy) between flanking Pra and Az4
On to B9, for which, in assay [2], the EC50 came to 56 nM.

B10: Biotin-PEG3-Cy(HGRGH)-PEG4-Cy(wplrf) (peptide)
peptide 1: {Biotin-PEG3′}-[Pra]HGRGH
peptide 2: [Pra][dW][dP][dL][dR][dF]
modifications: not fully specified (some residues, C-terminus); printed as Biotin-PEG3-Cy(HGRGH)-PEG4-Cy(wplrf); numbers in words are those of the source; also: joined C-terminally through a PEG4 linker to the second macrocycle, triazole to a chain's N/C-terminus
In the case of B10, the fold below the affinity of the optimal linker (PEG5) biligand in assay [1] came to 10 fold.
